Measurements reported in patent US20150166643A1 (Alexion, published 2015).
Numbering of substitutions follows the chain as printed. In names and notes the source's numbering stands.

Columns and labels:
[1] = biological target: T1, human factor B (purified, Complement Technology A135) (human, UniProt P00751 26-764); experiment: BLI (Octet), mAb on anti-human Fc biosensor, 50 nM human factor B
T1 construct: also called fB; human complement factor B
Method: (§1) Binding kinetics of TA106-originated mAbs were analyzed using a FortéBio® Octet® biosensor (FortéBio, Inc.) in a similar protocol as described previously. In one exemplary experiment, wild type (CLS011) and the variant S33A (CLS013) mAbs were captured on anti-human Fc biosensors at a concentration of 5 μg/mL, diluted in 1× kinetics buffer (KB, a proprietary formulation containing PBS/Tween). Capture (loading) was carried out for 400 seconds, followed by briefly dipping the biosensors in 1×KB as a wash for 30 seconds. Associations with a titration series of purified human Factor B (Complement Technology, Tyler, Tex.), which concentrations range from 50 to 3 nM (diluted in 1×KB), were carried out for 300 seconds.

[2] = biological target: T1, human factor B (purified, Complement …); experiment: BLI (Octet), mAb on anti-human Fc biosensor, 25 nM human factor B
Method: as §1

[3] = biological target: T1, human factor B (purified, Complement …); experiment: SPR, captured mAb, soluble factor B (summary table)
Excerpt: (§2) Binding kinetics of mAbs were further characterized using Biacore's Surface Plasmon Resonance (SPR) technology (GE Healthcare, Piscataway, N.J.). For a detailed description of SPR and its applications in affinity measurement, please see Karlsson and Larsson, Antibody Engineering: Methods and Protocols, Methods in Molecular Biology (2003), 248: 389-415. In one exemplary experiment, TA106 Fab and derivative mAbs were captured on chips of a Biacore 3000 analyzer and samples of human factor B of different concentrations were flowed as the antigen over the surface to model soluble human factor B binding, using protocols recommended by the manufacturer (e.g., in the product brochure #BR-9003-31). All these referenced publications are hereby incorporated by reference in their entirety. […] Fab TA106 (Xoma, Lot#TTA1007, 20 mg/mL) was then flowed over one flow cell, followed by injections of human factor B on both flow cells. Concentrations (factor B) between 3.1-200 nM were run. The surface was regenerated between each cycle. […] The affinities of mAbs, i.e., CLS011, CLS012, and CLS013, were determined using a similar capture approach. In one exemplary experiment, human anti-Fc antibody was amine coupled to two flow cells of a CM5 chip. Each of the TA106-originated mAbs was then flowed over one flow cell, followed by injecting human factor B (3.1-200 nM) on both flow cells. […]

[4] = biological target: T1, human factor B (purified, Complement …); experiment: BLI (Octet), mAb on anti-human Fc biosensor, 12.5 nM human factor B
Method: as §1

[5] = biological target: T1, human factor B (purified, Complement …); experiment: SPR (Biacore), CLS011 captured on anti-Fc surface, soluble factor B 3.1-100 nM flowed; Chi2 0.283
Excerpt: as §2

[6] = biological target: T1, human factor B (purified, Complement …); experiment: cell-based or functional assay
[7] = biological target: T1, human factor B (purified, Complement …); experiment: SPR (Biacore 3000), mAb captured by anti-Fc antibody on CM5 chip, soluble human factor B 3.1-200 nM
Excerpt: as §2

[8] = biological target: T1, human factor B (purified, Complement …); experiment: ELISA, human factor B coated at 0.5 ug/mL, detection with sheep anti-human kappa light chain HRP, abs 450 nm against nM antibody
Method: The binding activities of these mAbs towards factor B were analyzed by ELISA using standard protocols. In one exemplary experiment, MaxiSorp™ ELISA plates (Nunc, #439454, Rochester, N.Y.) were coated with 50 μL of human factor B (Complement Technology, A135, 1 mg/mL, lot 14c) at a concentration of 0.5 μg/mL in carbonate coating buffer (0.795 g carbonate+1.46 g bicarbonate+1 mL 1% NaN₃ (final concentration of 0.002%) in 500 mL water, pH 9.6 (lot 02 August 10)). Plates then were covered with plate sealers and incubated at 37±1° C. for one hour. Following coating, wells were emptied of reagent and washed in a BioTek® ELx405 plate washer (BioTek, Winooski, Vt.) for three times with 200 μL wash solution (PBS/0.05% Tween 20) per well. Following washes, wells were blocked with 100 μL of BSA (1% w/v) and incubated for one hour at room temperature. Wells were then washed again as described above. Fifty microliter samples (i.e., TA106 Fab, CLS011 mAb, CLS012 mAb, and CLS013 mAb) were then added to wells and incubated for one hour at room temperature. […] The plate was read on a Benchmark™ microplate reader (Bio-Rad Laboratories, Hercules, Calif.) at 450 nm. Standard curves were plotted with 4 parameter fit with DeltaSoft® 1.6 software, and sample concentrations were determined from the standard curves.

[9] = biological target: T1, human factor B (purified, Complement …); experiment: SPR (Biacore), CLS013 captured on anti-Fc surface, soluble factor B 3.1-100 nM flowed; Chi2 1.05
Excerpt: as §2

T1 sequence (P00751 26-764): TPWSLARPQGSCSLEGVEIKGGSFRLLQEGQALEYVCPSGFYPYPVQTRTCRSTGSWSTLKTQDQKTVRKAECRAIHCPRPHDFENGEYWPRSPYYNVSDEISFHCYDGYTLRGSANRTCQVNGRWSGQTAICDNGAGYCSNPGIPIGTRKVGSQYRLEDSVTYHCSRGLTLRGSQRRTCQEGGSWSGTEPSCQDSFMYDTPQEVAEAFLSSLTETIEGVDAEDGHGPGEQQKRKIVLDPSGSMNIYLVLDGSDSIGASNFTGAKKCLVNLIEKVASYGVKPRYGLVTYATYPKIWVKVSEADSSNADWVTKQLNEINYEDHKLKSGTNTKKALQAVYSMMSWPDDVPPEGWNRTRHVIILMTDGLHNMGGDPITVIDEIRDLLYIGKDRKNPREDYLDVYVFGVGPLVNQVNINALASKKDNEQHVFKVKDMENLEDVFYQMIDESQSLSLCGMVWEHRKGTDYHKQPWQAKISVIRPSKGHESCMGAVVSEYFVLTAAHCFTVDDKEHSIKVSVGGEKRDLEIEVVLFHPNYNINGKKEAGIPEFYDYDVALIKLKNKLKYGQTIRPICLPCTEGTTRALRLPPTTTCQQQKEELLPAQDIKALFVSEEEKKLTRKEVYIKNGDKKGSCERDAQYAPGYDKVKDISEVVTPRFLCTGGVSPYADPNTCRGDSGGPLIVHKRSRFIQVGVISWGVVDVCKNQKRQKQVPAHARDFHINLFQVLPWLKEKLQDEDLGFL

B1: CLS011 (TA106-derivative full-length IgG2/4 mAb, wild type light chain, expressed in CHO cells) (antibody, V domains shown)
VH: EVQLVQSGAEVKKPGASVKVSCKASGYSFTDYYMTWVRQAPGQGLEWMGWINPNSGGTKYAQKFQGRVTMTRDTSISTAYMELSRLRSDDTAVYYCARGYYANSAWFAYWGQGTLVTVSS
VL: DIVMTQSPDSLAVSLGERATINCKSSQSLLNSSTSKNYLAWYQQKPGQPPKLLIYWASTRESGVPDRFSGSGSGTDFTLTISSLQAEDVAVYYCKQVYNLPWTFGQGTKLEIKR
modifications: N-linked glycans on the N31-S32-S33 motif of CDR1; N-linked glycans on the heavy chain (possibly at N296)
notes: Human IgG2/4 full-length mAb; also called CLS011 mAb; TA106-derivative mAb
Kd [1]: 24.9 nM | koff [1]: 0.00418 s⁻¹ | kon [1]: 168000 M⁻¹ s⁻¹ | Kd [2]: 17.3 nM | koff [2]: 0.00297 s⁻¹ | kon [2]: 171000 M⁻¹ s⁻¹ | Kd [3]: 15 nM | Kd [4]: 11.1 nM | koff [4]: 0.00289 s⁻¹ | kon [4]: 261000 M⁻¹ s⁻¹ | koff [5]: 0.00253 s⁻¹ | kon [5]: 165000 M⁻¹ s⁻¹ | IC50 (read off the curve); lysis of rabbit red blood cells in 10% normal human serum [6]: ~50 nM | Kd [7]: ~15.4 nM

B2: CLS013 (TA106-derivative S33A variant, full-length IgG2/4 mAb, expressed in CHO cells) (antibody, V domains shown)
VH: B1 VH
VL: B1 VL with S33A
modifications: N-linked glycans on the heavy chain
notes: Human IgG2/4 full-length mAb; also called CLS013 mAb; TA106 variant S33A
Kd [1]: 32.1 nM | koff [1]: 0.00504 s⁻¹ | kon [1]: 157000 M⁻¹ s⁻¹ | Kd [2]: 52.2 nM | koff [2]: 0.00472 s⁻¹ | kon [2]: 90300 M⁻¹ s⁻¹ | Kd [3]: 18 nM | Kd [4]: 37.7 nM | koff [4]: 0.00428 s⁻¹ | kon [4]: 114000 M⁻¹ s⁻¹ | EC50 (read off the curve) [8]: ~0.4 nM | IC50 (read off the curve); lysis of rabbit red blood cells in 10% normal human serum [6]: ~20 nM | Kd [7]: ~17.6 nM | koff [9]: 0.00311 s⁻¹ | kon [9]: 177000 M⁻¹ s⁻¹
